In the supplement of paper PMC9170038:

System: MS2 coat protein
Assay: apparent KD of MS2 coat protein; designed switch direction (-1 OFF switch, 1 ON switch): -1; higher = weaker reporter binding
Outline: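 Designed RNA switches were transcribed on Illumina chips by stalled E. coli RNA polymerase and titrated with SNAP-549-labelled MS2 coat protein from 0.7 or 1.5 nM, doubling to 3 µM. Step length ran from 0.8–1.5 h at the lowest concentration to 10–20 min at the highest. The apparent KD is the median over clusters for each design, from curve-fitted normalised cluster fluorescence.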

[1] = Eterna round: R95, input ligand: microRNA oligo, concentration not stated
[2] = input ligand: microRNA oligo, concentration not stated
[3] = Eterna round: R95, input ligand: FMN 200 uM
[4] = Eterna round: R95, input ligand: none

Sequence | apparent KD of MS2 coat protein [1] | apparent KD of MS2 coat protein (input ligand: FMN 200 uM) | apparent KD of MS2 coat protein [2] | apparent KD of MS2 coat protein (input ligand: none) | apparent KD of MS2 coat protein [3] | apparent KD of MS2 coat protein [4]
GGAUUACGAGGAUAUCGAUUUUAGUACAUGAGGAUCACCCAUGUUGUCCAGGUCUCGUUUCGAGAAGGCGUGAUUC [LRO-Ex5-06] (puzzle: Exclusion 5) | 58.4 nM | – | – | – | – | –
GGAUUCCAGUGAGGAUAUCCAAAUAAAAGCCAUGGAGAAGGCACAUGAGGAUCACCCAUGUAGGGCAAUAACAGCGAACGCUGC [Erenlege] (Eterna round: R96, puzzle: Exclusion NG 1) | – | 73 nM | 43.3 nM | 30.8 nM | – | –
GGCAAACAUGAGGAUCACCCAUGUAAGGAUAUUAGGCGAUCGUCGAAAGACGAUAGCCUGAGAAGGUGCAUGCC [Eli x1 4.15] (Eterna round: R97, puzzle: Exclusion 1) | – | 38.8 nM | – | 22.4 nM | – | –
GGCAAUAUGUAGGAUAUCGUAUCGGAAACGAUACGAGAAGGGCAAACAUGAGGAUCACCCAUGUUCCUUAAGCC [Fiskers Ex 6 - 10] (puzzle: Exclusion 6) | 13.5 nM | – | – | – | – | –
GGCAUAAACGAGGAUAUCGAUACGGAAACGUAUCGAGAAGGUGUAACAUGAGGAUCACCCAUGUUCCUCAAGCC [Mat - Exclusion 6 - Eli Mod - D60] (puzzle: Exclusion 6) | 29.1 nM | – | – | – | – | –
GGCAUAAACGAGGAUAUCGUUACGGAAACGUAACGAGAAGGUGUAACAUGAGGAUCACCCAUGUUCCUCAAGCC [Mat - Exclusion 6 - Eli Mod - D59] (Eterna round: R96, puzzle: Exclusion 6) | – | 36.8 nM | 29.8 nM | 38 nM | – | –
GGCAUAAACGAGGAUAUCGUUACGGAAACGUAACGAGAAGGUGUAACAUGAGGAUCACCCAUGUUCCUCAAGCC [Mat - Exclusion 6 - Eli Mod - D59] (puzzle: Exclusion 6) | 28.9 nM | – | – | – | – | –
GGCAUCGGAGGAUAUAUUUAUGGUGAUACCGGAAGCUUUCUACUUGAGGAUCACCCAAGUAGAAGGCCGAUGCC [jl-ex2.4.85 ViennaUCT mod] (Eterna round: R97, puzzle: Exclusion 2) | – | 39.5 nM | – | 13.7 nM | – | –
GGCAUGUGAGGAUAUGCGAAGGGAAGGAGAGGGAAAGAGAAGCAGAAGGCACAUGAGGAUCACCCAUGUAAGGG [AK-MS2ROC-r4-exclusion4-8] (Eterna round: R97, puzzle: Exclusion 4) | – | 34.1 nM | – | 203 nM | – | –
GGCCCUAAGGUCAGAUCCACAAGCUUUUUGCUCGUUUUAACAUGAGGAUCACCCAUGUCUAGUGGAUUUGAUCCUCA [Sensor v3, turn-off variant 2 (MOD of Indiso v.5)] (puzzle: Sensor v3, turn-off variant 2) | 14.5 nM | – | – | – | 36.2 nM | 41.3 nM
GGCCCUAAGGUCAGAUUCACAAGCUUUUUGCUCGUUUUAACAUGAGGAUCACCCAUGUCUAGUGGAUCUGAUCCUCA [Sensor v3, turn-off variant 2 (MOD of Indiso v.2)] (puzzle: Sensor v3, turn-off variant 2) | 11.8 nM | – | – | – | 21.6 nM | 20.1 nM
GGCCCUAGGGUCAGACGCACAAGCUUUUUGCUCGUUUUAACAUGAGGAUCACCCAUGUCUAGUGGAUCUGAUCGGGU [Mausinonra] (Eterna round: R96, puzzle: Sensor v3, turn-off variant 2) | – | 19.6 nM | 96.8 nM | 25.8 nM | – | –
GGCCCUAGGGUCAGACGCACAAGCUUUUUGCUCGUUUUAACAUGAGGAUCACCCAUGUCUAGUGGAUCUGAUCGGGU [Mausinonra] (puzzle: Sensor v3, turn-off variant 2) | 111 nM | – | – | – | 20.6 nM | 18.5 nM
GGCCGAGAACAGCUCCGCGCUGCCCUCAGCCGCUCAUUUACAUGAGGAUCACCCAUGUUUUUUGCUUGUCUUGUUUC [Antibe] (puzzle: Sensor v3, turn-off variant 2) | 104 nM | – | – | – | 20.3 nM | 22.3 nM
GGCGAAGUAGGAUAUACAUGAGGAUCACCCAUGUAACCUAUAGGCGAAGAUCUUCUAUGUAGAAGGACUACGCU [jl-ex3-4.40 ViennaUCT mod] (Eterna round: R97, puzzle: Exclusion 3) | – | 15.3 nM | – | 15.3 nM | – | –
GGCGCACAUGAGGAUCACCCAUGUGAGGAUAUUAGGCGAUCGUCGAUAGACGAUAGCCUGAGAAGGCACAUGCC [Mat - Exclusion 1 - Eli Mod - D18] (Eterna round: R97, puzzle: Exclusion 1) | – | 188 nM | – | 29.3 nM | – | –
GGCGCCUGAGGAUAUCAGUCUGGAUCAGAAUAGAUCCUGACUGAGAAGGCACAUGAGGAUCACCCAUGUUCGCC [Eli 4x 4.28] (Eterna round: R97, puzzle: Exclusion 4) | – | 16.4 nM | – | 14.8 nM | – | –

Sequence | apparent KD of MS2 coat protein [1] | apparent KD of MS2 coat protein (input ligand: FMN 200 uM) | apparent KD of MS2 coat protein [2] | apparent KD of MS2 coat protein (input ligand: none) | apparent KD of MS2 coat protein [3] | apparent KD of MS2 coat protein [4]
GGCUGACAUGUAGGAUAUCUGCACGAUUAGUGCAGAGAAGGACAUGAGGAUCACCCAUGUAUAGCGACUUCGGUCGCAACAGCC [ENG1/2-A1] (Eterna round: R96, puzzle: Exclusion NG 1) | – | 155 nM | 31 nM | 40 nM | – | –
GGCUGACAUGUAGGAUAUCUGCACGUUUAGUGCAGAGAAGGACAUGAGGAUCACCCAUGUAUAGCGACUUCGGUCGCAACAGCC [ENG1/2-A2] (Eterna round: R96, puzzle: Exclusion NG 1) | – | 115 nM | 31.6 nM | 48.3 nM | – | –
GGGAAACAUGAGGAUCACCCAUGUAAUGAGCAUGGAAUCCCAGAGGAUAUCGCAUGUAUGAAUGUCGAGAAGGCUGACGUUAAA [Eternabot solution 6] (Eterna round: R96, puzzle: Exclusion NG 3) | – | 1030 nM | 198 nM | 207 nM | – | –
GGGAAACAUGAGGAUCACCCAUGUCAGGAUAUGAUACUAUGUACUUCGGUACAUAGUAUCAGAAGGGACAUCAU [Ex1-3: 13] (puzzle: Exclusion 1) | 79.2 nM | – | – | – | – | –
GGGAAGAACCAACAAGCAAACAUGAGGAUCACCCAUGUUAGUGGUUCGAAUGUAAAGAUUAAGAGAGCUCGUCUUAU [AK-miRNA-r3-9] (Eterna round: R97, puzzle: Sensor, turn-off variant 1) | – | 18 nM | – | 20.2 nM | – | –
GGGAAGAACCAACAAGUAGACAUGAGGAUCACCCAUGUAGACUUCAUGUAGGAAAGGAAAGGAAGAGCUCGUCUUAU [AK-miRNA-r3-12] (Eterna round: R97, puzzle: Sensor, turn-off variant 1) | – | 21.6 nM | – | 28.5 nM | – | –
GGGAUGUCAGGAUAUCCGAAUAAUAACAACAAUAACAGAAAGGAGAAGGGACAUGAGGAUCACCCAUGUAAAAG [Bemadiin] (puzzle: Exclusion 4) | 37.5 nM | – | – | – | 39.9 nM | 40 nM
GGGCCCGGAGGAUAUACAUGAGGAUCACCCAUGUAGCGCGCGCGUAUUUGUGUGUGUUGUAGAAGGCCGGGCCC [-36.6, -33.8 kcal, A 19%, 6-0] (Eterna round: R97, puzzle: Exclusion 3) | – | 57.9 nM | – | 17.9 nM | – | –
GGGCCCGGUGUGAGGAUAUCGGGCCCGAAAGGGUUUGAGAAGGCACAUGAGGAUCACCCAUGUAAGCCGGGCCC [-41.1, -39 kcal, A 23%, 5b-0] (Eterna round: R97, puzzle: Brourd's mod of Exclusion 4) | – | 17.1 nM | – | 15.3 nM | – | –
GGGCCCGGUGUGAGGAUAUCGGGCUCGAAAGGGCUCGAGAAGGCACAUGAGGAUCACCCAUGUAAGCCGGGCCC [-42.6, -40.5 kcal, A 23%, 4-0] (Eterna round: R97, puzzle: Brourd's mod of Exclusion 4) | – | 15.2 nM | – | 18.6 nM | – | –
GGGCGUAGGCAGGAUAUGUAAGGCUGUUGGUCUAUAGAAGGGUUUACAUGAGGAUCACCCAUGUGACCGAACCG [Eternabot (L2) Solution 16] (Eterna round: R97, puzzle: Exclusion 6) | – | 18.2 nM | – | 16.4 nM | – | –
GGGCUCGGUGUGAGGAUAUCGGGCCCGAAAGGGCCCGAGAAGGCACAUGAGGAUCACCCAUGUAAGUCGGGCUC [-38.1, -37 kcal, A 23%, 0-4] (Eterna round: R97, puzzle: Brourd's mod of Exclusion 4) | – | 13.6 nM | – | 14.1 nM | – | –
GGGUAGUUAGGAUAUCAGACUAGCUGCUCAACAGCAGCAGCUGAGAAGGGACUUGAGGAUCACCCAAGUGGAAG [Ceisis] (Eterna round: R97, puzzle: Exclusion 4) | – | 64.9 nM | – | 70.1 nM | – | –
GGGUGCAGGCUGAGGUCCUACAUGAGGAUCACCCAUGUGGUCCGGUGACGUGAGUCACCGGACUUGGCUCGUCUUGU [salish99_S_TOV1_R5_010] (Eterna round: R97, puzzle: Sensor, turn-off variant 1) | – | 41.5 nM | – | 50.5 nM | – | –
GGGUUGGUAGGAUAUACAUGAGGAUCACCCAUGUCAUGUCGUCGGGAAAGAUCUUUCCGUAGAAGGGCCACCCG [Eternabot (L2) Solution 52] (Eterna round: R97, puzzle: Exclusion 3) | – | 97 nM | – | 28 nM | – | –
GGGUUUCCGCAGGAUAUACGAUGGCGCAAUGUAGUAGAAGGGCGGACAUGAGGAUCACCCAUGUUCGUUCCUCG [EX6 C.25] (Eterna round: R97, puzzle: Exclusion 6) | – | 26.4 nM | – | 14.6 nM | – | –
GGGUUUGGAGGAUAUACAUGAGGAUCACCCAUGUACCCGGGCCCUAUUGGGUUUGGGUGUAGAAGGCCGGGCCC [-33.9, -31.3 kcal, A 19%, 5bbis,5b] (Eterna round: R97, puzzle: Exclusion 3) | – | 20.4 nM | – | 17.7 nM | – | –
